The values that follow come from article PMC3218054, “Characterisation of the Interaction of the C-Terminus of the Dopamine D2 Receptor with Neuronal Calcium Sensor-1” (PLoS ONE, 2011).

The test has as its target T1, Neuronal calcium sensor-1 (NCS-1), Rattus norvegicus, wild type (Rattus norvegicus, UniProt P62168 1-190).
T1 construct: NCS-1, Rattus norvegicus; cDNA GenBank L27421; sub-cloned into pET-M11; 15N or 15N,13C labelled for NMR; Monomeric by SEC-MALS; also called wild type NCS-1; source: E. coli BL21 (DE3), purified (Phenyl FF hydrophobic column, TEV cleavage, Superdex 75); not shown: His tag, N-terminal, cleaved
The experiment in a line: other fluorescence titration; intrinsic tryptophan fluorescence of 1 µM NCS-1 (excitation 280 nm, emission 290-410 nm), peptide added stepwise; 20 mM HEPES, 139 mM NaCl, 2 mM ATP, 5 mM EGTA, 5 mM nitrilotriacetic acid, pH 7.4, 1 µM free Ca2+; room temperature; logistic fit. The settings on record: both partners purified.

T1 sequence (P62168 whole entry): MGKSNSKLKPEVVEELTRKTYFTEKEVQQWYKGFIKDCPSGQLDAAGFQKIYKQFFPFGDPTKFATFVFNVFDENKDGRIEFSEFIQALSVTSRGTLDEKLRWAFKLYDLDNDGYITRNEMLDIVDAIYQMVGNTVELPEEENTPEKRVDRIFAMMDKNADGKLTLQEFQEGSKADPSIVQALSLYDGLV

B1: D2 peptide, residues 428-443 of the human dopamine D2 receptor (peptide)
peptide: TFNIEFRKAFLKILHC
notes: dopamine D2 receptor, human, residues 428-443, cytoplasmic C-terminal tail; Dissolved first in a minimal amount of DMSO; also called D2 (428-443); dopamine D2 receptor C-terminus; source: synthetic peptide, bought: Peptide Protein Research Ltd
Consider B1, for which the EC50 – broadly, the midpoint of the concentration-response curve – was found to be 14.3 µM and the stoichiometry N – broadly, a count of units in the complex or per binding partner – was 2 peptide per NCS-1.
